Test results published in paper doi:10.1101/2025.06.27.661974 (bioRxiv, 2025).

Biological target: the molecule itself
Experiment: SEC-MALS

B1: Flag-UBE2O-TwinStrep (recombinant Homo sapiens UBE2O, purified) (enzyme, human, UniProt Q9C0C9 1-1292, looked up)
chain: MADPAAPTPAAPAPAQAPAPAPEAVPAPAAAPVPAPAPASDSASGPSSDSGPEAGSQRLLFSHDLVSGRYRGSVHFGLVRLIHGEDSDSEGEEEGRGSSGCSEAGGAGHEEGRASPLRRGYVRVQWYPEGVKQHVKETKLKLEDRSVVPRDVVRHMRSTDSQCGTVIDVNIDCAVKLIGTNCIIYPVNSKDLQHIWPFMYGDYIAYDCWLGKVYDLKNQIILKLSNGARCSMNTEDGAKLYDVCPHVSDSGLFFDDSYGFYPGQVLIGPAKIFSSVQWLSGVKPVLSTKSKFRVVVEEVQVVELKVTWITKSFCPGGTDSVSPPPSVITQENLGRVKRLGCFDHAQRQLGERCLYVFPAKVEPAKIAWECPEKNCAQGEGSMAKKVKRLLKKQVVRIMSCSPDTQCSRDHSMEDPDKKGESKTKSEAESASPEETPDGSASPVEMQDEGAEEPHEAGEQLPPFLLKEGRDDRLHSAEQDADDEAADDTDDTSSVTSSASSTTSSQSGSGTSRKKSIPLSIKNLKRKHKRKKNKITRDFKPGDRVAVEVVTTMTSADVMWQDGSVECNIRSNDLFPVHHLDNNEFCPGDFVVDKRVQSCPDPAVYGVVQSGDHIGRTCMVKWFKLRPSGDDVELIGEEEDVSVYDIADHPDFRFRTTDIVIRIGNTEDGAPHKEDEPSVGQVARVDVSSKVEVVWADNSKTIILPQHLYNIESEIEESDYDSVEGSTSGASSDEWEDDSDSWETDNGLVEDEHPKIEEPPIPPLEQPVAPEDKGVVISEEAATAAVQGAVAMAAPMAGLMEKAGKDGPPKSFRELKEAIKILESLKNMTVEQLLTGSPTSPTVEPEKPTREKKFLDDIKKLQENLKKTLDNVAIVEEEKMEAVPDVERKEDKPEGQSPVKAEWPSETPVLCQQCGGKPGVTFTSAKGEVFSVLEFAPSNHSFKKIEFQPPEAKKFFSTVRKEMALLATSLPEGIMVKTFEDRMDLFSALIKGPTRTPYEDGLYLFDIQLPNIYPAVPPHFCYLSQCSGRLNPNLYDNGKVCVSLLGTWIGKGTERWTSKSSLLQVLISIQGLILVNEPYYNEAGFDSDRGLQEGYENSRCYNEMALIRVVQSMTQLVRRPPEVFEQEIRQHFSTGGWRLVNRIESWLETHALLEKAQALPNGVPKASSSPEPPAVAELSDSGQQEPEDGGPAPGEASQGSDSEGGAQGLASASRDHTDQTSETAPDASVPPSVKPKKRRKSYRSFLPEKSGYPDIGFPLFPLSKGFIKSIRGVLTQFRAALLEAGMPECTEDK
stoichiometry N: 2
